Values quoted from earlier work as cited in EP3351262A1, “CURAGLUTIDE FOR IN TREATMENT OF PREDIABETES, DIABETES, OBESITY AND METABOLIC DISEASES ASSOCIATED THERETO” (Istanbul Universitesi Rektorlugu, priority 2016, dated 2018).

Conditions: in vivo; cited from earlier work

For “GLP-1: glucagon like peptide-1, a neuroendocrine (intestinal) hormone with incretin effect”, the half-life in plasma is listed as 12 to 30 min.
